Literature values, collected in patent US20260125483A1, “COMPOSITIONS OF IL-6/IL-6R ANTIBODIES AND METHODS OF USE THEREOF” (Tiziana Life Sciences PLC, priority 2020, published 2026).
Residue numbers refer to the chain shown, from its start.

B1: 39B9 VL1: IL-6R antibody, heavy chain variable region SEQ ID NO:2, light chain variable region SEQ ID NO: 4 (antibody, V domains shown)
VH: QVQLVQSGAEVKKPGSSVKVSCKASGGTFSSYAISWVRQAPGQGLEWMGGIIPLFDTTKYAQQFQGRVTITADESTSTAYMELSSLRSEDTAVFYCARDRDILTDYYPMGGMDVWGQGTTVTVSS
VL: AIQLTQSPSSLSASVGDRVTITCRASQGISSVLAWYQQKPGKAPKLLIYDASSLESGVPSRFSGSGSGTDFTLTISSLQPEDFATYYCQQSNSYPLTFGGGTKVEIKR
modifications: 3B9 VL1-VH amino acid sequence; 39B9 VL1-VL amino acid sequence
B2: 12A: IL-6R antibody, heavy chain variable region SEQ ID NO:8, light chain variable region SEQ ID NO: 10 (antibody, V domains shown)
VH: QVQLVESWGGVVQPGRSLRLSCAASGFTFSNYDMYWVRQAPGKGLEWVAVILDDGNNNYYADSVKGRFTISRDNSKKKVYLQMNSLRAEDTAVYYCVRASPNWGLLDFWGQGTLVTVSS
VL: B1 VL with A1E, Q3V, V32W, S91F, L96I, G100Q, K103R, V104L
modifications: 12A VH amino acid sequence; 12A VL amino acid sequence
B3: 5C: IL-6R antibody, heavy chain variable region SEQ ID NO: 12, light chain variable region SEQ ID NO: 14 (antibody, V domains shown)
VH: B2 VH with E6Q, W8G, T28I, N31S, D53Y, N58K, K77N, K78T, L106F
VL: B1 VL with A1D, L4M, V32D, I48M, S91F, L96I, G100Q, K103R, V104L
modifications: 5C VH amino acid sequence; 5C VL amino acid sequence
B4: 39B9 VL5: IL-6R antibody, heavy chain variable region SEQ ID NO:2, light chain variable region SEQ ID NO: 6 (antibody, V domains shown)
VH: B1 VH
VL: B1 VL with A1D, Q3L, L4M, G28D, V32W
modifications: 3B9 VL1-VH amino acid sequence; 39B9 VL5-VL amino acid sequence

Molecular target: IL-6Rc (Homo sapiens, UniProt P05231+P08887)
Sequence (P08887 20-468): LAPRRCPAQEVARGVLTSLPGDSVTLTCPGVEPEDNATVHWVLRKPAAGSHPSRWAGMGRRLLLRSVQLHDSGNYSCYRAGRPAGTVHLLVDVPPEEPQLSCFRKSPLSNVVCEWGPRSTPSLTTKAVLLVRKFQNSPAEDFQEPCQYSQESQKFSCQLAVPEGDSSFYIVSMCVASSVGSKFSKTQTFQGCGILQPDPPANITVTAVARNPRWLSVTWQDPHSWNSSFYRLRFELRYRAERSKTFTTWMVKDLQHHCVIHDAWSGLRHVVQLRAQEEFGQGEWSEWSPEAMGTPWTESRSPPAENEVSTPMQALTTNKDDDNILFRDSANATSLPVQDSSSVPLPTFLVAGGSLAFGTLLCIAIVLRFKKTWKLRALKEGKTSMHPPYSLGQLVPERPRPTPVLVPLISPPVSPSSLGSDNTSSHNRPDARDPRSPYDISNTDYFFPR
Sequence (P05231 30-212): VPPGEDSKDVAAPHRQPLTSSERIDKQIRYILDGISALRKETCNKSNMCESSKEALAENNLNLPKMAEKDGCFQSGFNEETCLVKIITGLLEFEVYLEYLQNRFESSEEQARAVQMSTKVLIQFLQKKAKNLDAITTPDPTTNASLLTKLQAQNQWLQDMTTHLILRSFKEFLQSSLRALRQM
Details: binding to gp130 to induce the signaling cascade; WO/2009/140348

Molecule	functional activity of IL-6Rc in vitro
B1	inhibit the functional activity of IL-6Rc
B2	inhibit the functional activity of IL-6Rc
B3	inhibit the functional activity of IL-6Rc
B4	inhibit the functional activity of IL-6Rc
